{"source": "patent US11787850B2", "about": "“Peptidic TGF-beta antagonists” (priority 2015, dated 2023)", "key": {"[1]": {"assay": "Size-exclusion chromatography on Superdex Peptide 10/300GL column", "type": "physicochemical", "conditions": "for formation of aggregates by size-exclusion chromatography: peptide in PBS, Superdex Peptide 10/300GL, 0.6 ml/min; for Aggregation?: size-exclusion chromatography, peptide dissolved in PBS", "description": "Approximately 200 μg of each peptide X (40 amino acids), X-1 (28 amino acids), peptide A (161 amino acids), P11 (11 amino acids), P16 (16 amino acids), P21 (21 amino acids, P16-2 (16 amino acids, scrambled sequence control), X-3 (16 amino acids) and X-4 (11 amino acids) were dissolved in phosphate-buffered saline (PBS) and loaded onto a Superdex Peptide 10/300GL column. The column was eluted with PBS at a flow rate of 0.6 mL/min and eluents were analyzed for peptide content by measuring relative absorbance at a wavelength of 215 nm. (FIGS. 3A and 3B) The data is plotted with relative absorbance (Y-axis) against elution volume (X-axis). Peptides 1-9 are color coded (A—peptides (1) to (5); B (peptides (6) to (9)). As shown on panel A, peptide X (peptide 1, black line) elution profile indicated two major peaks at approximately 8 mL and 11 mL which correspond to molecular weights greater than 12.4 kDa. The theoretical molecular weight of peptide X is 4.7 kDa which is expected to elute from the column at approximately 15 mL. Under the conditions tested, peptide X existed as high molecular weight aggregates with minimal soluble (monomeric) form. On the other hand, P16 (peptide 5, green line) elution profile indicated a broad peak between 14-22 mL which is expected to contain peptides of between 0.1 and 6 kDa and is consistent with its theoretical molecular weight of 2.01 kDa.\nFIG. 4 illustrates the standard curve used for size-exclusion chromatography of standard peptides using the Superdex Peptide 10/300 GL column (results provided in FIG. 3). A pool of standard peptides of various molecular weights (1. cytochrome c (Mr 12.384 kDa) 1 mg/mL; 2. aprotinin (Mr 6.512 kDa) 2 mg/mL; 3. vitamin B12 (Mr 1.355 kDa) 0.1 mg/mL; 4. (Gly)3 (Mr 0.189 kDa) 0.1 mg/mL; 5. Gly (Mr 0.075 kDa) 7.8 mg/mL) were subjected to size-exclusion chromatography using the Superdex Peptide 10/300 GL column (flow rate 0.5 ml/min at room temperature, sample volume of 50 μL, eluent 0.05M phosphate, 0.15 M NaCl, ph 7.0). The resulting chromatogram (absorbance at 215 nm (in mAU, left Y axis) and conductivity (in mS/cm, right Y axis, in function of volume of elution (in mL)) indicates the elution profiles of the above peptides with high MW peptides eluting in earlier fractions and lower MW peptides eluting in later fractions as expected. The molecular weights of peptides were plotted against elution volume generating a standard curve (not shown).\nMore specifically, approximately […] of each peptide X (40 amino acids), X-1 (28 amino acids), peptide A (161 amino acids), P11 (11 amino acids), P16 (16 amino acids), P21 (21 amino acids, P16-2 (16 amino acids, scrambled sequence control), X-3 (16 amino acids) and X-4 (11 amino acids) were dissolved in phosphate-buffered saline (PBS) and loaded onto a Superdex Peptide 10/300GL column. The column was eluted with PBS at a flow rate of 0.6 ml/min and eluants were analyzed for peptide content by measuring relative absorbance at a wavelength of 215 nm. The data were plotted with relative absorbance (Y-axis) against elution volume (X-axis). […] The theoretical molecular weight of peptide X is 4.7 kDa which is expected to elute from the column at approximately 15 mL. […] P16 (peptide 5) elution profile indicated a peak between 14-22 mL which was expected to contain peptides of between 0.1 and 6 kDa and is consistent with its theoretical molecular weight of 2.01 kDa.\nMore specifically, a pool of standard proteins of various molecular weights were subjected to size-exclusion chromatography using the Superdex Peptide 10/300 GL column. The resulting chromatogram indicated the elution profiles of the peptides with high molecular weight peptides eluting in earlier fractions and lower molecular weight peptides eluting in later fractions as expected. The molecular weights of peptides were plotted against elution volume generating a standard curve (not shown) and was used to calculate molecular weights of the CD109-based peptides. […]"}, "[2]": {"system": "TGF-b-induced phosphorylation of Smad2 in squamous cell carcinoma (A431) cells", "assay": "Western blot for phospho-Smad2 in A431 cells", "type": "cell-based", "conditions": "10 nM peptide, 100 pM TGF-b, 45 min at 4 C (FIG. 32)", "description": "A431 cancer cells treated with 10 nM of P16.2 (negative peptide control), P16 or PA in the absence or presence of 100 pM TGF-b, followed by 45 min of incubation at 4 C. Cells lysates were analyzed by Western blot using an anti-phosphoSmad2 antibody. Actin expression was used as loading control."}, "[3]": {"system": "TGF-β-induced fibrotic response in human fibroblasts", "assay": "Immunoblot of fibrotic markers in human primary fibroblasts", "type": "cell-based", "conditions": "100 pM TGF-β, different dosage of P16, 24 hrs (FIG. 34)", "description": "(§1) Human primary fibroblasts were starved for 36 hours, then treated with 20 pM TGF-β and 10 nM CD109-based peptide as indicated for 24 hours. (FIG. 29A) Cell lysates were separated by gel electrophoresis, transferred to a membrane, and immunoblotted with antibodies against fibronectin, PAI-1, CTGF, and α-tubulin. (FIG. 29B) The data shown represent the mean expression levels of 3 different biological replicates calculated by densitometry of fibronectin, PAI-1, and CTGF intensity levels normalized to α-tubulin. Error bars represent the standard deviation of the replicate experiments. A single asterisk designates a t test P value of less than 0.05, and a double asterisk indicates a P value of less than 0.01.\nHuman fibroblasts were starved for 36 hours, then treated with 100 pM TGF-β and different dosage of P16 for 24 hrs. (FIG. 34A) Cell lysates were separated by gel electrophoresis, transferred to a membrane, and immunoblotted with antibodies against each of the indicated proteins. (FIG. 34B) Densitometry analysis was subsequently carried out to quantitate the expression of each of the indicated proteins as a function of P16 concentration."}, "[4]": {"system": "TGF-β-induced fibrotic response in primary human fibroblasts isolated from scleroderma patients", "assay": "Immunoblot of fibrotic markers in scleroderma patient fibroblasts", "type": "cell-based", "conditions": "various concentrations of P16, 20 pM TGF-β, 24 hours (FIG. 31)", "source_text": "(FIG. 30A) Cell lysates were separated by gel electrophoresis, transferred to a membrane, and immunoblotted with antibodies against the indicated proteins. (FIG. 30B) The data shown represent the mean expression levels of 3 different biological replicates calculated by densitometry of fibronectin, PAI-1, and CTGF intensity levels normalized to α-tubulin. Error bars represent the standard deviation of the replicate experiments. A single asterisk designates a t test P value of less than 0.05.\nas §1, with “Fibroblasts” for “Human primary fibroblasts”, “various concentrations of P16” for “10 nM CD109-based peptide”, “31A)” for “29A)”, “the indicated proteins.” for “fibronectin, PAI-1, CTGF, and α-tubulin.”, “31B)” for “29B)”"}}}
{"sequence": "LGSSPHVRKHFPETWIWLDTNMGSRIYQEFEVTVPDSITS (Peptide X)", "values": [{"measurement": "molecular weights corresponding to the elution peaks", "setting": "[1]; PBS, theoretical MW peptide X 4.7 kDa, P16 2.01 kDa", "result": "greater than 12.4 kDa"}, {"measurement": "formation of aggregates by size-exclusion chromatography", "setting": "[1]", "result": "formed aggregates"}, {"measurement": "Aggregation?", "setting": "[1]", "result": "Aggregated"}]}
{"sequence": "ETWIWLDTNMGSRIYQ [Peptide P16]", "values": [{"measurement": "formation of aggregates by size-exclusion chromatography", "setting": "[1]", "result": "did not"}, {"measurement": "Aggregation?", "setting": "[1]", "result": "Not aggregated"}, {"measurement": "inhibition of TGF-b-induced phosphorylation of Smad2", "setting": "[2]", "result": "inhibit"}, {"measurement": "TGF-β-induced expression of fibronectin, collagen (COL1A1), PAI-1, α-SMA and CTGF", "setting": "[3]", "result": "attenuate"}, {"measurement": "inhibition of TGF-β-induced fibrotic response, dose-dependent", "setting": "[4]", "result": "inhibit"}]}
